Experimental findings from paper PMC4609290 (Molecular cell, 2015) are described below.

In assay [1] the target is T1, AF10PZP (Homo sapiens, UniProt P55197).
T1 sequence (P55197 18-208 isoform P55197-1): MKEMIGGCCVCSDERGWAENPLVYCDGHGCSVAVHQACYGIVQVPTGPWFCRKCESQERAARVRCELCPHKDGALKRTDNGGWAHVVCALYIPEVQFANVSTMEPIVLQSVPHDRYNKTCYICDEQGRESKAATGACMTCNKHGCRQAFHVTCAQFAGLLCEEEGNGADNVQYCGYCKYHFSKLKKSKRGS
Nature of the assay: Binding of minimal H3 peptide to the PZP domain. The note with it: Figure S1D.

Another assay deals with AF17PZP. The assay is described as follows: Histone peptide pull-down with AF17PZP. The assay is classed as binding, human. The note with it: biotinylated H3 peptides, Western blot.
Assay [2] deals with T1, AF10PZP. The assay is described as follows: Histone peptide pull-down with AF10PZP. In kind it is binding. As to conditions: biotinylated H3 peptides, Western blot; GST-AF10PZP. (In general: In western blotting, separated proteins are transferred to a membrane and probed.)
The next assay deals with JADE1PZP. The assay is described as follows: Histone peptide pull-down with JADE1PZP. In kind it is binding, human. The note with it: biotinylated H3 peptides, Western blot.
Assay [3] has as its target T1, AF10PZP. Nature of the assay: ITC binding of H3 peptides to AF10PZP. As to conditions: standard deviation derived from nonlinear fitting.

On to “H3(1-36) peptide spanning residues A21 to K27: minimal peptide, segment of H3(1-36) spanning residues A21 to K27 (ATKAARK; UniProt P68431 22-28, looked up, fragment)”, for which, in the assay with AF10PZP [1], the “binding of minimal peptide to the PZP domain” value is “sufficient for binding, though with weaker affinity than the longer peptide”.
With “H3K27 acetylated: Acetylation of H3K27, H3 (aa 15-34) peptides”, in the assay on AF17PZP, the “binding to AF17PZP (peptide pull-down)” value was “disrupted recognition”. Besides, the “binding to AF10PZP (peptide pull-down)” value with AF10PZP [2] was “disrupted recognition”.
Turning to “H3_1-21: peptide spanning amino acids 1-21 (H3_1-21; the very N-terminus of H3)”, in the assay on JADE1PZP, the “binding to JADE1PZP (peptide pull-down)” value is on record as “bound as expected”. For the same substance, the “binding to AF17PZP (peptide pull-down)” value with AF17PZP was “did not bind”. In addition, the “binding to AF10PZP (peptide pull-down)” value with AF10PZP [2] is “did not bind”.
With “H3_15-34 di-methylation at K27: H3_15-34 peptide with di-methylation at K27”, the “binding to AF17PZP (peptide pull-down)” value in the assay with AF17PZP is recorded as “abolished”. Also, the “binding to AF10PZP (peptide pull-down)” value in the assay with AF10PZP [2] is reported as “abolished”. The Kd result with AF10PZP [3] was “could no longer be detected”.
